Source: patent US20050202434

Target: T1, metallo-beta-lactamase (beta-lactamase II) 5/B/6 (Bacillus cereus) (UniProt P14488)
T1 sequence: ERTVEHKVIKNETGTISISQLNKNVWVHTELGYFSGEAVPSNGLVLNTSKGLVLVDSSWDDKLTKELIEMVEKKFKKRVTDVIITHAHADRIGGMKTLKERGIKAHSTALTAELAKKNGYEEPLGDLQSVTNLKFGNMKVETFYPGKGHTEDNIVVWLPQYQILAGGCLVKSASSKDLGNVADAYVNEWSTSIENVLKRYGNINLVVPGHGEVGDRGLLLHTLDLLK
Assay: inhibition

Sequence: GCGCCATATGCGCGCGNNNNNNNNNNNNNNNNNNNNNNNNNNNNNNCGCGCGGAGCTCGCG [initial random 61-mer pool]
- activity (% control activity): 100

Sequence: ANCNANNNTTNNNTNGNNGNNCATNNNNAA [round 16 SELEX pool (consensus 30N)]
- activity (% control activity): 47
